Key:
[1] = tested on: IGF2BP2 KH34 (IGF2BP2KH34) (Homo sapiens); test: MST; details: MST: 50 mM phosphate pH 7.0, 150 mM NaCl, 0.05% Tween 20, room temperature, 20 min incubation, 250 nM labeled RNA
[2] = tested on: IGF2BP2 RRM (IGF2BP2RRM) (Homo sapiens); test: MST; details: MST: 50 mM phosphate pH 7.0, 150 mM NaCl, 0.05% Tween 20, room temperature, 20 min incubation, 250 nM labeled RNA

ZIKV 3' NTR
Kd [1]: 418 nM | Kd [2]: 1600 nM

ZIKV 5' NTR
Kd [1]: 203 nM

From publication PMC11578589
